Results from the supplement of paper PMC12764529.
± gives the half width of the 95% confidence interval.

Key:
[1] = folding stability dG unfold from trypsin proteolysis; higher = more stable
Method in brief: (§1)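 Bayesian fitting of sequencing counts gave K50 for each design. Unfolding free energy followed by setting this against a sequence-predicted unfolded-state K50 and a shared folded-state K50, either per protease or with trypsin and chymotrypsin combined. The designs, under 80 residues and lacking cysteine, were digested in a PA-tagged cDNA display format at 11 threefold-diluted protease concentrations and without protease, and only those with AlphaFold2 dimer inter-PAE above 15 were kept.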

[2] = folding stability dG unfold from chymotrypsin proteolysis; higher = more stable
Method in brief: as §1

[3] = folding stability dG unfold (combined trypsin and chymotrypsin); higher = more stable
Method in brief: as §1

Sequence | folding stability dG unfold [1] | folding stability dG unfold [2] | folding stability dG unfold [3]
SAGGSAMKVIVTVKILDKGEVKTLTEEEAKKYLEEHPEEVKEVEVETTVESDATESFTDIDLNGLKSAGGSA [r15_99_JUSTAS] | -0.185 ± 0.21 kcal/mol | 0.462 ± 0.047 kcal/mol | 0.416 ± 0.23 kcal/mol
SAGGSAMLIRFVRDDKTVELRPFSSIEEARAFLEKGPVEEIEPREAPGGERVTFRAKLPDGEVLVESAGGSA [r15_632_JUSTAS] | -0.466 ± 0.23 kcal/mol | -0.743 ± 0.33 kcal/mol | -0.542 ± 0.15 kcal/mol
SAGGSAMLLIKITIETKDGEKYEIVVEAESEEEALAALKEKARELFPELSEEDVKIVDIEVYELEESAGGSA [r15_220_TrROS_Hall] | 4.58 ± 0.25 kcal/mol | 4.25 ± 0.088 kcal/mol | 4.29 ± 0.13 kcal/mol
SAGGSAMMELEIEIKVEGMTEEELRELAERLAAELTPEGWKVVAVRVERVDEEEGVVRVTVVVEPVSAGGSA [r15_96_TrROS_Hall] | 4.31 ± 0.35 kcal/mol | 3.83 ± 0.16 kcal/mol | 4.18 ± 0.27 kcal/mol
SAGGSAMPDNMKPVGSIPMVYLVPDGWIMRINYEYWKNPESGMWMINMDIEVFPLPKNDPELLKAISAGGSA [r15_207_TrROS] | 2.42 ± 0.18 kcal/mol | 2.65 ± 0.093 kcal/mol | 2.62 ± 0.18 kcal/mol
SAGGSAMPEVKVEVEIIERDPENEDYVLVRIKVEVRFKTEDGEEVEVREERELLVFPSEEELKKALSAGGSA [r15_1019_TrROS_Hall] | 2.02 ± 0.064 kcal/mol | 1.82 ± 0.048 kcal/mol | 1.89 ± 0.33 kcal/mol
SAGGSAMPILTDTVYEIPVDRSPDETEEEIKEYLKELLLKKLPPGTEVKLEVKFDPETGTVTVKVVSAGGSA [r15_739_JUSTAS] | 1.96 ± 0.12 kcal/mol | 0.972 ± 0.037 kcal/mol | 1.58 ± 0.12 kcal/mol
SAGGSAMPKIEVTVYFPENGTETVEIHFPPGKVITGPLSLLEEIIESGIPKENISISYKTLSPSLTSAGGSA [r15_955_JUSTAS] | 1.64 ± 0.03 kcal/mol | 1.05 ± 0.061 kcal/mol | 1.37 ± 0.041 kcal/mol
SAGGSAMPKKVVEGPVPPEDVEARIAELLEEDPNLTYVKFTYPELGSEVVIDFENGKVTKIERLLESAGGSA [r15_166_JUSTAS] | -0.217 ± 0.1 kcal/mol | 0.211 ± 0.1 kcal/mol | 0.108 ± 0.052 kcal/mol
SAGGSAMPKYVISGIYRLPDKTLFFDYVIPPGLAENPERVKELAEEIRELLEQLGYPAVDFKIEPVSAGGSA [r15_781_TrMRF] | 1.65 ± 0.043 kcal/mol | 2.09 ± 0.065 kcal/mol | 1.99 ± 0.098 kcal/mol
SAGGSAMPPVKVEVVEAEPFVVEGEGGLYLVRPFLVRAPDLPRLFLVVLVEDPGEPDVLAEVFDLDSAGGSA [r15_528_TrMRF] | 1.84 ± 0.041 kcal/mol | 2.55 ± 0.045 kcal/mol | 2.37 ± 0.099 kcal/mol
SAGGSAMPVKTSTTTEGDTVTTYTLEPVGGSTTLTTTTTTVTKTNSGTTTTSTTTTTPLPTASGATSAGGSA [r15_725_JUSTAS] | -0.0787 ± 0.022 kcal/mol | -0.108 ± 0.074 kcal/mol | -0.014 ± 0.074 kcal/mol
SAGGSAMPVVEIEIEVSEEEAEELVKKLKELFPEVEEVEVERTEDGLRIRVRVKLPPLTEEELKAKSAGGSA [r15_166_TrROS_Hall] | 1.17 ± 0.026 kcal/mol | 0.987 ± 0.042 kcal/mol | 1.04 ± 0.054 kcal/mol
SAGGSAMRIKDVNPDNGYFRIEPPDNGKPIYELNVEAMKKAQENGDIPPWVRELLNHEPGYRIEPVSAGGSA [r15_359_TrROS] | -0.979 ± 0.49 kcal/mol | -0.291 ± 0.21 kcal/mol | -0.327 ± 0.15 kcal/mol
SAGGSAMSEEALAEAERLVAERRAALEAAGVPVTVERVEVTVTVDTEVPTTNITVDLDVRLPDAPESAGGSA [r2_94_JUSTAS] | -0.0861 ± 0.034 kcal/mol | 1.38 ± 0.024 kcal/mol | 0.999 ± 0.027 kcal/mol
SAGGSAMTLEFKILFPNKTKEEAIKAIEEIPEEIKKNIKKIEILKIDPVGDEVIATLKIEVDPEFLSAGGSA [r15_244_TrMRF] | 0.723 ± 0.18 kcal/mol | 1.86 ± 0.24 kcal/mol | 1.37 ± 0.29 kcal/mol
SAGGSAMTPEEVREKAEEIAETLAAEAREAGYEVEVKAKVEGLPEKYARVTVELNGARVEVLIPLDSAGGSA [r15_432_TrMRF] | 0.453 ± 0.059 kcal/mol | -0.311 ± 0.18 kcal/mol | 0.125 ± 0.09 kcal/mol
SAGGSAMTPVTIELPFEVEADDPEEAIKKAKELAEKLGLKPVEIKEIEVEPGNPKKVTVLMKATILSAGGSA [r15_183_JUSTAS] | 1.74 ± 0.066 kcal/mol | 1.36 ± 0.049 kcal/mol | 1.6 ± 0.071 kcal/mol
SAGGSAMTVTTTTSVDPKTGIITTTVSVNGTPVFTGTSIVAPGGEVAETFGTYTYDPETGTVTVTGSAGGSA [r15_770_JUSTAS] | 1.7 ± 0.067 kcal/mol | 1.17 ± 0.049 kcal/mol | 1.43 ± 0.086 kcal/mol
SAGGSAMVVRIEVDGKTIEIPAGASLEELKALLAENPGARFRIEVVEPPPPELSEEERKALEEARKSAGGSA [r15_36_TrROS_Hall] | 1.35 ± 0.019 kcal/mol | 1.32 ± 0.077 kcal/mol | 1.37 ± 0.1 kcal/mol
SAGGSAMVVRITTKDGKKIEITVKSVEELLEALKELGVEEVKLEKLPDGKELKLTVTLKDGKIEILSAGGSA [r15_632_TrROS_Hall] | 3.14 ± 0.087 kcal/mol | 2.8 ± 0.077 kcal/mol | 2.92 ± 0.054 kcal/mol

Sequence | folding stability dG unfold [1] | folding stability dG unfold [2] | folding stability dG unfold [3]
SAGGSAMYEVRIKIKKDGKEVEIELSLEELEELLESPELREELEIVEIEVRPLPPEELSEEELKALSAGGSA [r15_460_TrROS_Hall] | 1.18 ± 0.028 kcal/mol | 0.836 ± 0.045 kcal/mol | 1.06 ± 0.058 kcal/mol
SAGGSANDKDGQKKKQIKPIKIELPIPPGMEIEEINPGNGMIMIRWPENGWTWMFSLDDGKIFVMDSAGGSA [r15_452_TrROS] | 1.54 ± 0.058 kcal/mol | 2.13 ± 0.19 kcal/mol | 1.86 ± 0.22 kcal/mol
SAGGSANEILEKLGYPEENIVERKKVFKLPNGTELYEYVIPKTENGVTATILVEKTPKGVKIKVLPSAGGSA [r15_813_JUSTAS] | -0.642 ± 0.44 kcal/mol | 0.414 ± 0.25 kcal/mol | 0.318 ± 0.22 kcal/mol
SAGGSANLAETPPVTTTETIEIKVPDPGKPLPITEEDVKKKYEGKNTKVEISVEGDKVIITITTKESAGGSA [r15_377_JUSTAS] | 0.407 ± 0.054 kcal/mol | 0.871 ± 0.094 kcal/mol | 0.68 ± 0.24 kcal/mol
SAGGSANPKPKIEIDKIYRMPDGQVHIPIEMERYDDDGQKETYPMDVTFNVPEGKPLTPNAIKDLISAGGSA [r15_836_TrROS] | -0.645 ± 0.064 kcal/mol | -0.924 ± 0.24 kcal/mol | -0.693 ± 0.15 kcal/mol
SAGGSANTTYIELPTNGMSDEEVKELAEELAKKLGVKLEIKPLPGEGYWVVTFTLPDSTSTIVIPGSAGGSA [r15_168_JUSTAS] | 2.55 ± 0.11 kcal/mol | 2.37 ± 0.038 kcal/mol | 2.41 ± 0.11 kcal/mol
SAGGSANWRPIEIELMIGIKSKEQAKEWAEEIADNFPGIKDVEVEEFPDPDGHVMVAVDVKFYVPESAGGSA [r15_726_TrROS] | 0.755 ± 0.057 kcal/mol | 0.999 ± 0.031 kcal/mol | 0.969 ± 0.075 kcal/mol
SAGGSANWVKVEVKIPGGLKIEVWVPPGMSKEENQEKAQEMADEMAQMLRQMRENRKEGKPPTIDFSAGGSA [r15_704_TrROS] | 0.819 ± 0.08 kcal/mol | 2.02 ± 0.065 kcal/mol | 1.66 ± 0.1 kcal/mol
SAGGSAPAEKVAQTLLDLGFTEVRVEEDPETDLVTVEVIDPDGTRLEIRVDPKDPRIVEIRPRSLKSAGGSA [r15_648_TrMRF] | -0.351 ± 0.14 kcal/mol | -0.0972 ± 0.15 kcal/mol | -0.154 ± 0.16 kcal/mol
SAGGSAPETLTIKVKNADGSTQTITLPAGATATSIEFNEDTGELTIHLEETGETITLPADEITEITSAGGSA [r15_133_TrROS_Hall] | 1.39 ± 0.12 kcal/mol | 1.33 ± 0.026 kcal/mol | 1.4 ± 0.11 kcal/mol
SAGGSAPEVKIVDVEEVDGEVKIKVEAPPGARLLIFNRATGKWEEVEVKPGDTITLPPGALVLVEPSAGGSA [r15_418_TrROS_Hall] | 1.77 ± 0.025 kcal/mol | 3.22 ± 0.035 kcal/mol | 2.88 ± 0.1 kcal/mol
SAGGSAPFKAELVSYDPETGVATFKLTLPDGSEVTVVATLDPDGVPHVKAYFPDGSVYDIEEILASSAGGSA [r15_832_TrMRF] | 2.28 ± 0.076 kcal/mol | 3.893 ± 0.022 kcal/mol | 3.59 ± 0.1 kcal/mol
SAGGSAPFKIAEIESVEYDPNEGRPTIRITIEHDGRPVEIWVPPGGIQIFNMGDGEPIKEIPLDEISAGGSA [r15_85_TrROS] | 0.182 ± 0.25 kcal/mol | 0.434 ± 0.48 kcal/mol | 0.0268 ± 0.26 kcal/mol
SAGGSAPGVITFMLPLDDIPPDPDGKWTHNEIKDHIRPFIQEAFGKDDIEIDVSPHPNGWVRITIRSAGGSA [r15_562_TrROS] | 2.41 ± 0.074 kcal/mol | 2.76 ± 0.056 kcal/mol | 2.69 ± 0.079 kcal/mol
SAGGSAPGVTLVSSTSSTSTLPDGTTKSTTTTTYKSPTGTYTTTTTTTVDTSKGTTTPTTTVTPVSSAGGSA [r2_185_JUSTAS] | 0.645 ± 0.064 kcal/mol | 0.61 ± 0.16 kcal/mol | 0.692 ± 0.14 kcal/mol
SAGGSAPIKIKTADGKTITVNAKDLSLELLKKADKVIITKPDGKKIELPAGAKIKKGDTVTIKIVKSAGGSA [r15_733_TrROS_Hall] | 0.153 ± 0.11 kcal/mol | -0.437 ± 0.21 kcal/mol | -0.336 ± 0.33 kcal/mol
SAGGSAPKNVTIEFPIMAKVPDPKWAIDEARELARKQGFENTEIENIHVNPGDPNYVMIDVKMTIPSAGGSA [r15_183_TrROS] | 0.249 ± 0.11 kcal/mol | 0.278 ± 0.17 kcal/mol | 0.326 ± 0.24 kcal/mol
SAGGSAPLVATEVSVEGNTIVVRSVTRLPNGTLSEDVVLIELPPLPLPPPAPWSTFPETGRLRLGPSAGGSA [r15_335_JUSTAS] | 0.159 ± 0.15 kcal/mol | 0.76 ± 0.21 kcal/mol | 0.481 ± 0.24 kcal/mol
SAGGSAPPAVEEIAKILEELFPGYRVVAEAEPVRDPETDEVLLRIRVAVFDENGKVILELEITLPLSAGGSA [r15_1048_TrMRF] | 3.89 ± 0.054 kcal/mol | 4.3 ± 0.068 kcal/mol | 4.19 ± 0.07 kcal/mol
SAGGSAPPNIVRPYVRPFLIYNPNGEPAALGELVIFEAPEGRLILLRLRSLENGEELELPFLYPGESAGGSA [r15_819_TrMRF] | 2.71 ± 0.071 kcal/mol | 3.453 ± 0.02 kcal/mol | 3.25 ± 0.037 kcal/mol
